We go through 1 substance from patent US20180305702A1.

In test [1] the target is H-2K^b on DC2.4 cells not presenting SIINFEKL (cells infected with a non-SIINFEKL-expressing Lm strain; K^b-SIINFEKL negative populations) (murine). The test can be described thus: flow cytometry, K^b-SIINFEKL negative populations of infected DC2.4 cells. In general terms: Flow cytometry measures light scatter and fluorescence of single cells or particles in a stream.
For test [2] the target is unchanged. Kind of test: flow cytometry, DC2.4 cells infected with a non-SIINFEKL-expressing Lm strain at MOI 20.
For test [3], the target named is cell surface MHC class I K^b molecules presenting the OVA257-264 SIINFEKL peptide (murine). Kind of test: flow cytometry, K^b-SIINFEKL positive population of DC2.4 cells infected with Lm expressing PSA-Survivin-SIINFEKL
The target is the same in test [4]. The test can be described thus: flow cytometry, DC2.4 cells infected with ADXS31-2142 at MOI 20, stained five hours post-infection.
Test [5] shares this target. Kind of test: flow cytometry, K^b-SIINFEKL positive population of DC2.4 cells infected with Lm expressing PSA-PSMA-SIINFEKL
For test [6] the target is unchanged. Kind of test: flow cytometry, K^b-SIINFEKL positive population of DC2.4 cells infected with the SIINFEKL minigene Lm (positive control).

With “Alexa Fluor 647 conjugated 25D-1.16 antibody”, the Mean fluorescence intensity (MFI) in test [1] came to 300 MFI; in test [3], 4780 MFI; in test [5], 2040 MFI; in test [6] it was 14900 MFI. The percentage of Alexa647+ DC2.4 cells was 0.37% in test [2] and 14.6% in test [4].
